Results published in patent US20180275124A1 (DEUTSCHES KREBSFORSCHUNGSZENTRUM STIFTUNG DES FFENTLICHEN …, published 2018).

How the values were obtained:
Assay in all cases: surface plasmon resonance, Dectin-1 immobilized
[1] = target: T1, recombinant murine annexin A1 (murine, UniProt P10107 1-346)
T1 construct: Expressed in E. coli from pET41a with C-terminal FLAG tag, PreScission site and Protein A tag; the Protein A tag is cleaved off; also called mAnx1; mAnxA1; not shown: C-terminal FLAG tag and what remains of the PreScission site after cleavage
T1 sequence (looked up): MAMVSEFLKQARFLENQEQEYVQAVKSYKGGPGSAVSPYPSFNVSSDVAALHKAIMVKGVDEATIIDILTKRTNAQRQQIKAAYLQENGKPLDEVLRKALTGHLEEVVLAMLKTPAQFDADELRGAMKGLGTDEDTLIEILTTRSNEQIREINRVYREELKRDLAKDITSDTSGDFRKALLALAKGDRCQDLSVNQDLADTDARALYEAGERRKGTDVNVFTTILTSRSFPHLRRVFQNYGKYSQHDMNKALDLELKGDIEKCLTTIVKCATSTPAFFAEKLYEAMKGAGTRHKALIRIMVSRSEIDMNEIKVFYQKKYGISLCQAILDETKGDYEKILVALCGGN

[2] = target: T2, recombinant murine annexin A5 (murine, UniProt P48036 1-319)
T2 construct: Recombinant protein; also called mAnxA5; AnxA5
T2 sequence (looked up): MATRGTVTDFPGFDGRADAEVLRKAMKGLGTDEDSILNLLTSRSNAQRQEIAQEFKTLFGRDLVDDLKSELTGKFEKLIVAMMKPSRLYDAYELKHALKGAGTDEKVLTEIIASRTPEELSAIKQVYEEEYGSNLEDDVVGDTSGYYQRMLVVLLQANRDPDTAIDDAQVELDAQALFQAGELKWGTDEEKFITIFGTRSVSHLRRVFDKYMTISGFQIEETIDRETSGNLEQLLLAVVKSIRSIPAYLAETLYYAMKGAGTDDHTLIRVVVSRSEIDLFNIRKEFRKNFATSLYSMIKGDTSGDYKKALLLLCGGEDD

[3] = target: T3, recombinant murine annexin A13 (murine, UniProt Q99JG3 1-317)
T3 construct: Recombinant protein; also called mAnxA13; AnxA13
T3 sequence (looked up): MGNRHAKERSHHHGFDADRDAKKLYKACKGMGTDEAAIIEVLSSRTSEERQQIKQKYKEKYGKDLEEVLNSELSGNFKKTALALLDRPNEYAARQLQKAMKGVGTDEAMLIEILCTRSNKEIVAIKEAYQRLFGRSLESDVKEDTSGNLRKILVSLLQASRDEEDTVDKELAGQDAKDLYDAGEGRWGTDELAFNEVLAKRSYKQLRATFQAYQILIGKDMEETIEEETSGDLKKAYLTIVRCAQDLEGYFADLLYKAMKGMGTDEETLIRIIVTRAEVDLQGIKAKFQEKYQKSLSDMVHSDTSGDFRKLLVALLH

[4] = target: T4, murine annexin A1 core domain (murine, UniProt P10107 41-346, limits assumed)
T4 construct: domain: core domain; also called mAnxA1 core; AnxA1 core domain
T4 sequence (looked up): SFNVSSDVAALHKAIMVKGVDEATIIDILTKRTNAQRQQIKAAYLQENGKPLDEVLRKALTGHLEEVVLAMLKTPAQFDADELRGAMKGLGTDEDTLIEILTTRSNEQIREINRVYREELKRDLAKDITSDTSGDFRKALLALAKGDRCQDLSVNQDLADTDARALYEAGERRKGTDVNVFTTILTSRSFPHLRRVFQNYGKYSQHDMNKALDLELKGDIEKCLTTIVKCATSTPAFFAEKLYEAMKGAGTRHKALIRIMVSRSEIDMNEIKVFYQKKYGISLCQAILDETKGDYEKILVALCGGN

Measured: Kd

B1: Dectin-1 (receptor)
chain: GHNSGRNPEEKDNFLSRNKENHKPTESSLDEKVAPSKASQTTGGFSQPCLPNWIMHGKSCYLFSFSGNSWYGSKRHCSQLGAHLLKIDNSKEFEFIESQTSSHRINAFWIGLSRNQSEGPWFWEDGSAFFPNSFQVRNTAPQESLLHNCVWIHGSEVYNQICNTSSYSICEKEL
~100 nM: all assays above
